The values below come from doi:10.1101/2021.07.28.454137.

Test [1] has as its target human LonP1 T803V mutant, amino acids 125 to 959 (human) (UniProt P36776).
The target of test [2] is human mitochondrial Lon protease homolog (LonP1), wild-type, amino acids 125 to 959 (human) (UniProt P36776). The test is described as follows: cryo-EM structure.
For test [3] the target is unchanged. The test can be described thus: cryo-EM structure. This is another data set of the same source.

One may read the stoichiometry N as a count of units in the complex or per binding partner.

Read-outs that look alike come from different tables or passages of the source.

As to “human LonP1 T803V mutant, amino acids 125 to 959 (from UniProt P36776 125-959) (enzyme)”, the ATPase activity relative to wild-type LonP1 in test [1] worked out at 50%.
On to “human mitochondrial Lon protease homolog (LonP1), wild-type, amino acids 125 to 959 (from UniProt P36776 125-959) (enzyme)”, for which the stoichiometry N in test [2] and in test [3] was 6 each time.
